Reference: paper PMC8158685, “MexAB-OprM Efflux Pump Interaction with the Peptidoglycan of Escherichia coli and Pseudomonas aeruginosa” (International Journal of Molecular Sciences, 2021)

T1: OprM deleted of the flexible C-terminus residues 473-485 (OprMΔCter) (P. aeruginosa (PAO1 genome as template), UniProt Q51487 18-472)
T1 construct: signal peptide in the construct (forward primer begins at the ATG of the precursor); OprM of Pseudomonas aeruginosa PAO1 without its last 13 residues 473-485; PCR fragment NdeI-XmaI in pBAD33; also called OprM∆Cter; source: E. coli C43 deleted of acrB, pBAD33, purified (Ni-NTA, Superdex 200) in DDM
T1 sequence (looked up): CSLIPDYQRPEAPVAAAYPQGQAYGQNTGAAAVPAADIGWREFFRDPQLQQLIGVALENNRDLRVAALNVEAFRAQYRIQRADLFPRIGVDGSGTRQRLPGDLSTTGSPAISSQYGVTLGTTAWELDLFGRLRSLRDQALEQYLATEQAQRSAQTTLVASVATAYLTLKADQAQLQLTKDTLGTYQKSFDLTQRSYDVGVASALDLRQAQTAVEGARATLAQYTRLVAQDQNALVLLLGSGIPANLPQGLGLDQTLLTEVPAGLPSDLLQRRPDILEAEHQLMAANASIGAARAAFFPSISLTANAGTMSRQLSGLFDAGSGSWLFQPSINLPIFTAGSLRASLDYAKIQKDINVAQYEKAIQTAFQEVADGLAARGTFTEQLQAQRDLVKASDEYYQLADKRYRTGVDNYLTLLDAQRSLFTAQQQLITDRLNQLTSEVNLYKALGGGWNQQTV

B1: MexA (natural protein)
chain: CGKSEAPPPAQTPEVGIVTLEAQTVTLNTELPGRTNAFRIAEVRPQVNGIILKRLFKEGSDVKAGQQLYQIDPATYEADYQSAQANLASTQEQAQRYKLLVADQAVSKQQYADANAAYLQSKAAVEQARINLRYTKVLSPISGRIGRSAVTEGALVTNGQANAMATVQQLDPIYVDVTQPSTALLRLRRELASGQLERAGDNAAKVSLKLEDGSQYPLEGRLEFSEVSVDEGTGSVTIRAVFPNPNNELLPGMFVHAQLQEGVKQKAILAPQQGVTRDLKGQATALVVNAQNKVELRVIKADRVIGDKWLVTEGLNAGDKIITEGLQFVQPGVEVKTVPAKNVASAQKADAAPAKTDSKG
notes: MexA, periplasmic membrane fusion protein of the MexAB-OprM efflux pump, Pseudomonas aeruginosa; wild type; The pure protein was reloaded on Ni-NTA for the detergent exchange, so the His tag was probably still on it; Natural MexA is a lipoprotein whose signal peptide is cut; also called MFP; periplasmic membrane fusion protein; source: for one experiment exchanged into C12E8 on Ni-NTA
B2: OprM (wild type, full-length) (natural protein)
chain: CSLIPDYQRPEAPVAAAYPQGQAYGQNTGAAAVPAADIGWREFFRDPQLQQLIGVALENNRDLRVAALNVEAFRAQYRIQRADLFPRIGVDGSGTRQRLPGDLSTTGSPAISSQYGVTLGTTAWELDLFGRLRSLRDQALEQYLATEQAQRSAQTTLVASVATAYLTLKADQAQLQLTKDTLGTYQKSFDLTQRSYDVGVASALDLRQAQTAVEGARATLAQYTRLVAQDQNALVLLLGSGIPANLPQGLGLDQTLLTEVPAGLPSDLLQRRPDILEAEHQLMAANASIGAARAAFFPSISLTANAGTMSRQLSGLFDAGSGSWLFQPSINLPIFTAGSLRASLDYAKIQKDINVAQYEKAIQTAFQEVADGLAARGTFTEQLQAQRDLVKASDEYYQLADKRYRTGVDNYLTLLDAQRSLFTAQQQLITDRLNQLTSEVNLYKALGGGWNQQTVTQQQTAKKEDPQA
notes: OprM, outer membrane factor of the MexAB-OprM efflux pump, Pseudomonas aeruginosa; wild type, 'OprM full-length'; The pure protein was reloaded on Ni-NTA for the detergent exchange, so the His tag was probably still on it; Natural OprM is a lipoprotein whose signal peptide is cut on export; also called OMF; outer-membrane factor channel; source: E. coli C43 deleted of acrB, pBAD33, purified …

Assays:
[1] = molecular target: T1, OprM deleted of the flexible C-terminus …; assay: pull-down; purified insoluble PG of P. aeruginosa PAO1 as the pelleted matrix; MexA and OprM pre-mixed 2:1 (PG:MexA:OprM 100:2:1); 20 mM Tris-HCl pH 8.0, 300 mM NaCl, 0.05% DDM; 1 h room temperature; three washes; pellet on SDS-PAGE; proteins released by lysozyme; settings: both partners purified
[2] = molecular target: B2; assay: pull-down; purified insoluble peptidoglycan (PG) of E. coli C43 as the pelleted matrix; MexA and OprM pre-mixed 2:1 (PG:MexA:OprM 100:2:1); 20 mM Tris-HCl pH 8.0, 300 mM NaCl, 0.05% DDM; 1 h room temperature; three washes; pellet on SDS-PAGE; proteins released by lysozyme; settings: both partners purified
[3] = molecular target: the molecule itself; assay: SEC; Superdex 200 gel filtration in TBS (20 mM Tris-HCl pH 8, 150 mM NaCl) with 0.05% DDM, last step of the purification
MexA = molecular target: B1; assay: pull-down; PG of P. aeruginosa, DDM; MexA and OprM mixed at 3:1 compared with 2:1; ratio in the retained complex from relative band intensities on SDS-PAGE; settings: both partners purified

Binder | binding result [1] | binding result [2] | stoichiometry N [3] | stoichiometry N (MexA)
B1 | binds | binds |  | 
B2 |  |  | 3 | 2 MexA:OprM
